{
  "source": "the RNAGym collection of RNA variant scans (doi:10.7554/elife.80360)",
  "parents": {"B1": {"name": "Twister Ribozyme (parent)", "chain": "AACACUGCCAAUGCCGGUCCCAAGCCCGGAUAAAAGUGGAGGGGGCGG"}},
  "data": [
    {"variants_of": "B1", "assay": "self-cleavage, relative activity (ratio to wild type); higher = more cleavage; co-transcriptional", "values": [
      {"variant": "AACACUGCCAAUGCCGGUCCCAAGCCCGGAUAAAAUUGGAGGGGGCGG", "note": "[G36U]", "self-cleavage": 0.479},
      {"variant": "AACACUGCCAAUGCCGGUCCCAAGCCCGGAUAAAAUUGGGGGGGGCGG", "note": "[G36U A40G]", "self-cleavage": 0.125},
      {"variant": "AACACUGCCAAUGCCGGUCCCAAGCCCGGAUAAAAUUCGAGGGGGCGG", "note": "[G36U G38C]", "self-cleavage": 0.286},
      {"variant": "AACACUGCCAAUGCCGGUCCCAAGCCCGGAUAAAAUUGGAAGGGGCGG", "note": "[G36U G41A]", "self-cleavage": 0.124},
      {"variant": "AACACUGCCAAUGCCGGUCCCAAGCCCGGAUAAAAUUGGACGGGGCGG", "note": "[G36U G41C]", "self-cleavage": 0.114},
      {"variant": "AACACUGCCAAUGCCGGUCCCAAGCCCGGAUAAAAUUGGAUGGGGCGG", "note": "[G36U G41U]", "self-cleavage": 0.0887},
      {"variant": "AACACUGCCAAUGCCGGUCCCAAGCCCGGAUAAAAUUGGAGUGGGCGG", "note": "[G36U G42U]", "self-cleavage": 0.103},
      {"variant": "AACACUGCCAAUGCCGGUCCCAAGCCCGGAUAAAAUUGGAGGUGGCGG", "note": "[G36U G43U]", "self-cleavage": 0.15},
      {"variant": "AACACUGCCAAUGCCGGUCCCAAGCCCGGAUAAAAUUGGAGGGGACGG", "note": "[G36U G45A]", "self-cleavage": 0.4},
      {"variant": "AACACUGCCAAUGCCGGUCCCAAGCCCGGAUAAAAUUGGAGGGGGCAG", "note": "[G36U G47A]", "self-cleavage": 0.272},
      {"variant": "AACACUGCCAAUGCCGGUCCCAAGCCCGGAUAAAAUUGGAGGGGGCCG", "note": "[G36U G47C]", "self-cleavage": 0.198},
      {"variant": "AACACUGCCAAUGCCGGUCCCAAGCCCGGAUAAAAUUGGAGGGGGCUG", "note": "[G36U G47U]", "self-cleavage": 0.412},
      {"variant": "AACACUGCCAAUGCCGGUCCCAAGCCCGGAUAAAAUUGGAGGGGGCGA", "note": "[G36U G48A]", "self-cleavage": 0.43},
      {"variant": "AACACUGCCAAUGCCGGUCCCAAGCCCGGAUAAAAUUGGAGGGGGCGC", "note": "[G36U G48C]", "self-cleavage": 0.514},
      {"variant": "AACACUGCCAAUGCCGGUCCCAAGCCCGGAUAAAAUAGGAGGGGGCGG", "note": "[G36U U37A]", "self-cleavage": 0.177},
      {"variant": "AACACUGCCAAUGCCGGUCCCAAGCCCGGAUAAAAUCGGAGGGGGCGG", "note": "[G36U U37C]", "self-cleavage": 0.283},
      {"variant": "AACACUGCCAAUGCCGGUCCCAAGCCCGGAUAAAAGAGGAGGGGGCGG", "note": "[U37A]", "self-cleavage": 0.883},
      {"variant": "AACACUGCCAAUGCCGGUCCCAAGCCCGGAUAAAAGAGGCGGGGGCGG", "note": "[U37A A40C]", "self-cleavage": 0.127},
      {"variant": "AACACUGCCAAUGCCGGUCCCAAGCCCGGAUAAAAGAGGGGGGGGCGG", "note": "[U37A A40G]", "self-cleavage": 0.165},
      {"variant": "AACACUGCCAAUGCCGGUCCCAAGCCCGGAUAAAAGAGGUGGGGGCGG", "note": "[U37A A40U]", "self-cleavage": 0.137},
      {"variant": "AACACUGCCAAUGCCGGUCCCAAGCCCGGAUAAAAGAGGAGGGGGAGG", "note": "[U37A C46A]", "self-cleavage": 0.844},
      {"variant": "AACACUGCCAAUGCCGGUCCCAAGCCCGGAUAAAAGAGCAGGGGGCGG", "note": "[U37A G39C]", "self-cleavage": 0.121},
      {"variant": "AACACUGCCAAUGCCGGUCCCAAGCCCGGAUAAAAGAGGAGGAGGCGG", "note": "[U37A G43A]", "self-cleavage": 0.145},
      {"variant": "AACACUGCCAAUGCCGGUCCCAAGCCCGGAUAAAAGAGGAGGCGGCGG", "note": "[U37A G43C]", "self-cleavage": 0.149},
      {"variant": "AACACUGCCAAUGCCGGUCCCAAGCCCGGAUAAAAGAGGAGGGGACGG", "note": "[U37A G45A]", "self-cleavage": 0.835},
      {"variant": "AACACUGCCAAUGCCGGUCCCAAGCCCGGAUAAAAGAGGAGGGGUCGG", "note": "[U37A G45U]", "self-cleavage": 0.617},
      {"variant": "AACACUGCCAAUGCCGGUCCCAAGCCCGGAUAAAAGAGGAGGGGGCCG", "note": "[U37A G47C]", "self-cleavage": 0.292},
      {"variant": "AACACUGCCAAUGCCGGUCCCAAGCCCGGAUAAAAGAGGAGGGGGCUG", "note": "[U37A G47U]", "self-cleavage": 0.702},
      {"variant": "AACACUGCCAAUGCCGGUCCCAAGCCCGGAUAAAAGAGGAGGGGGCGU", "note": "[U37A G48U]", "self-cleavage": 0.811},
      {"variant": "AACACUGCCAAUGCCGGUCCCAAGCCCGGAUAAAAGCGGAGGGGGCGG", "note": "[U37C]", "self-cleavage": 0.738},
      {"variant": "AACACUGCCAAUGCCGGUCCCAAGCCCGGAUAAAAGCGGAGGGGGUGG", "note": "[U37C C46U]", "self-cleavage": 0.627},
      {"variant": "AACACUGCCAAUGCCGGUCCCAAGCCCGGAUAAAAGCCGAGGGGGCGG", "note": "[U37C G38C]", "self-cleavage": 0.742},
      {"variant": "AACACUGCCAAUGCCGGUCCCAAGCCCGGAUAAAAGCUGAGGGGGCGG", "note": "[U37C G38U]", "self-cleavage": 0.516},
      {"variant": "AACACUGCCAAUGCCGGUCCCAAGCCCGGAUAAAAGCGAAGGGGGCGG", "note": "[U37C G39A]", "self-cleavage": 0.219},
      {"variant": "AACACUGCCAAUGCCGGUCCCAAGCCCGGAUAAAAGCGCAGGGGGCGG", "note": "[U37C G39C]", "self-cleavage": 0.0703},
      {"variant": "AACACUGCCAAUGCCGGUCCCAAGCCCGGAUAAAAGCGGAAGGGGCGG", "note": "[U37C G41A]", "self-cleavage": 0.134},
      {"variant": "AACACUGCCAAUGCCGGUCCCAAGCCCGGAUAAAAGCGGACGGGGCGG", "note": "[U37C G41C]", "self-cleavage": 0.087},
      {"variant": "AACACUGCCAAUGCCGGUCCCAAGCCCGGAUAAAAGCGGAUGGGGCGG", "note": "[U37C G41U]", "self-cleavage": 0.126},
      {"variant": "AACACUGCCAAUGCCGGUCCCAAGCCCGGAUAAAAGCGGAGGAGGCGG", "note": "[U37C G43A]", "self-cleavage": 0.142},
      {"variant": "AACACUGCCAAUGCCGGUCCCAAGCCCGGAUAAAAGCGGAGGCGGCGG", "note": "[U37C G43C]", "self-cleavage": 0.102},
      {"variant": "AACACUGCCAAUGCCGGUCCCAAGCCCGGAUAAAAGCGGAGGUGGCGG", "note": "[U37C G43U]", "self-cleavage": 0.106},
      {"variant": "AACACUGCCAAUGCCGGUCCCAAGCCCGGAUAAAAGCGGAGGGGUCGG", "note": "[U37C G45U]", "self-cleavage": 0.515},
      {"variant": "AACACUGCCAAUGCCGGUCCCAAGCCCGGAUAAAAGCGGAGGGGGCAG", "note": "[U37C G47A]", "self-cleavage": 0.478},
      {"variant": "AACACUGCCAAUGCCGGUCCCAAGCCCGGAUAAAAGCGGAGGGGGCUG", "note": "[U37C G47U]", "self-cleavage": 0.585},
      {"variant": "AACACUGCCAAUGCCGGUCCCAAGCCCGGAUAAAAGCGGAGGGGGCGC", "note": "[U37C G48C]", "self-cleavage": 0.843},
      {"variant": "AACACUGCCAAUGCCGGUCCCAAGCCCGGAUAAAAGCGGAGGGGGCGU", "note": "[U37C G48U]", "self-cleavage": 0.881},
      {"variant": "AACACUGCCAAUGCCGGUCCCAAGCCCGGAUAAAAGGGGAGGGGGCGG", "note": "[U37G]", "self-cleavage": 0.861},
      {"variant": "AACACUGCCAAUGCCGGUCCCAAGCCCGGAUAAAAGGGGCGGGGGCGG", "note": "[U37G A40C]", "self-cleavage": 0.163},
      {"variant": "AACACUGCCAAUGCCGGUCCCAAGCCCGGAUAAAAGGGGUGGGGGCGG", "note": "[U37G A40U]", "self-cleavage": 0.128},
      {"variant": "AACACUGCCAAUGCCGGUCCCAAGCCCGGAUAAAAGGGGAGGGGGAGG", "note": "[U37G C46A]", "self-cleavage": 0.619},
      {"variant": "AACACUGCCAAUGCCGGUCCCAAGCCCGGAUAAAAGGAGAGGGGGCGG", "note": "[U37G G38A]", "self-cleavage": 0.774},
      {"variant": "AACACUGCCAAUGCCGGUCCCAAGCCCGGAUAAAAGGUGAGGGGGCGG", "note": "[U37G G38U]", "self-cleavage": 0.127},
      {"variant": "AACACUGCCAAUGCCGGUCCCAAGCCCGGAUAAAAGGGAAGGGGGCGG", "note": "[U37G G39A]", "self-cleavage": 0.126},
      {"variant": "AACACUGCCAAUGCCGGUCCCAAGCCCGGAUAAAAGGGGAGGCGGCGG", "note": "[U37G G43C]", "self-cleavage": 0.0693}
    ]}
  ]
}
